# Results taken from patent publication US8809529B2, “Imidazo[1,2-α]pyrazine derivatives” (Promega Corporation, priority 2010, dated 2014).
# Residue numbers refer to the chain shown, from its start. Names and notes keep the numbering of the source.
# B1: L27V: 9B8 opt+K33N variant with L27V, T39T, K43R, Y68D (protein)
# chain: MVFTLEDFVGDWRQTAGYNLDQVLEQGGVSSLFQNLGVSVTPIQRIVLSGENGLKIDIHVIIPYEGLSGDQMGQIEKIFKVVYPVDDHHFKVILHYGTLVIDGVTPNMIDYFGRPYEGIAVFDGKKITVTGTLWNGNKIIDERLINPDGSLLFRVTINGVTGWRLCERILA
# B2: 9B8 opt: codon optimized version of the 9B8 variant (protein)
# chain: B1 chain with V29L, N35K, R45K, D70Y
# B3: 9B8: IV variant with Q18L, F68Y, L72Q, M75K; in Tables 12, 22, 23, 26, 27 “9B8” stands for 9B8 opt (protein)
# chain: B1 chain with V29L, N35K, R45K, D70Y
# Key:
# [1] = Luminescence of OgLuc variants expressed in HEK293 cells; assay type: cell-based, human; settings: for Increase in Luminescence: HEK293: normalized to 9B8 opt
# Description: (§1) The PCR library in the pF4Ag-based non-fusion background was screened for additional variants with increased luminescence compared to 9B8 opt+K33N+170G (SEQ ID NOs: 68 and 69). Selected variants were then assayed in HEK293 and NIH3T3 cells. For each cell type, 15,000 cells were plated and grown overnight at 37° C. The next day, the cells were transfected as described in Example 25 with 10 ng pGL4.13 (Promega Corp.) as a transfection control and 100 ng of the OgLuc test DNA. The media was removed, and the cells were lysed with 100 μL of lysis buffer as described in Example 25 except the lysis buffer contained 100 mM MES pH 6.0 instead of HEPES, and luminescence measured using a GLOMAX® Luminometer.
# (§2) Based on the above data, further combination variants were designed and generated (see Table 10) in the context of the pF4Ag-based non-fusion vector background without the 170G. The variants were analyzed in E. coli, HEK293 and NIH3T3 cells as described above and compared to 9B8 opt+K33N. The variants were also examined for luminescence with native coelenterazine.
# (§3) The brightness of the variants expressed in HEK293 and NIH3T3 cells was measured as described previously. The luminescence of the variants was normalized to the luminescence generated by 9B8 opt (Table 27).
# (§4) The variants 9B8 opt+K33N+T39T+K43R+Y68D (“V2”; SEQ ID NOs: 92 and 93), 9B8 opt+K33N+L27V+K43R+Y68D (SEQ ID NOs: 339 and 340), 9B8 opt+K33N+L27V+T39T+K43R+S66N (SEQ ID NOs: 341 and 342), and 9B8 opt+K33N+L27V+T39T+K43R+Y68D (“L27V”; SEQ ID NOs: 88 and 89) were subcloned into the Id-OgLuc-HT7 sandwich background as described above and assayed in HEK293 and NIH3T3 cells as described above. The luminescence generated by the sandwiched variants were compared to the luminescence generated by the […] sandwich (SEQ ID NOs: 59 and 60) (Table 38). The L27V sandwich (SEQ ID NOs: 90 and 91) and V2 sandwich (SEQ ID NOs: 94 and 95) had at least 1.3× fold-increase in luminescence in HEK293 and NIH3T3 cells.
# (§5) The sandwich and non-sandwich versions of the variants V2, 9B8 opt+K33N+L27V+K43R+Y68D, 9B8 opt+K33N+L27V+T39T+K43R+S66N, and L27V were assayed in HEK293 and NIH3T3 cells as described in Example 37. The luminescence generated by the non-sandwiched variants was compared to the luminescence generated by the sandwiched variants (Table 39).
# [2] = Luminescence of OgLuc variants expressed in NIH3T3 cells; assay type: cell-based; settings: for Increase in Luminescence: NIH3T3: normalized to 9B8 opt
# Description: as §1, §2, §3, §4, §5
# [3] = assay type: biochemical, E. coli
# Description: The signal stability of 15C1 with PBI-3945 and 9B8 with PBI-3889 was measured and compared to IV. E. coli containing plasmid DNA encoding 15C1, 9B8, or IV were grown and induced as described previously in 8-well replicates. Cells were lysed using a lysis buffer containing of 300 mM HEPES pH 8.0, 0.3× Passive Lysis Buffer (“PLB”; Promega Corp. Cat. No. E194A), 0.3 mg/mL lysozyme, and 0.003 U/μL RQ1 DNase. Lysates were diluted 1:1000 in lysis buffer and measured for luminescence using a TECAN® INFINITE® F500 luminometer. Measurements were taken immediately after the addition to 10 μL of diluted lysate sample of 50 μL of “Glo” 0.5% TERGITOL assay buffer (“0.5% TERGITOL”), which contained 150 mM KCl, 1 mM CDTA, 10 mM DTT, 100 mM thiourea, 0.5% TERGITOL® NP-9 (v/v), and 20 μM of either novel coelenterazines PBI-3945 or PBI 3889.
# The signal stability of the variants was determined by re-reading the plate every 30 seconds for a length of time after the addition of the assay buffer to the sample. The signal half-life was determined from these measurements using methods known in the art. The average signal half-life was compared between the variants and IV. […] At t=10 min, luminescence for 15C1 with PBI-3945 and 9B8 with PBI-3889 were equivalent.
# E. coli lysates containing the variants were prepared and analyzed as described previously except the assay buffer contained 0.25% TERGITOL® NP-9 (v/v), 100 mM MES pH 6.0, 1 mM CDTA, 150 mM KCl, 35 mM thiourea, 2 mM DTT, and 20 μM PBI-3939.
# [4] = assay type: physicochemical, E. coli; settings: for ½ life hours: 60° C., assay buffer 100 mM MES pH 6.0
# Description: Aliquots were removed at different time-points and placed on dry ice to freeze the samples. […] Luminescence was measured on a GLOMAX® luminometer (Promega Corp.).
# The thermal stability of the variants at 60° C. was examined as described above, except the assay buffer contained 100 mM MES pH 6.0 instead of HEPES.
# [5] = Stability of secreted OgLuc variants in saved media; assay type: physicochemical; settings: secreted variant in media
# Description: To determine if the secretion signal sequence of OgLuc facilitates its secretion, the OgLuc variants 9B8, V2 and L27V were cloned into pF4Ag containing an N-terminal OgLuc secretion signal sequence. The variants were also cloned into vectors without the secretion signal sequence. CHO or HeLa cells were then plates at 100,000 cells/well in 1 mL F12 media with 10% FBS and 1× sodium pyruvate (CHO cells) or DMEM with 10% FBS and 1× sodium pyruvate (HeLa cells) into 12-well plates and incubated overnight at 37° C., 5% CO2.
# After the overnight incubation, the cells were transfected with 1 μg plasmid DNA containing 9B8, V2, or L27V with or without the secretion signal sequence using the TRANSIT®-LT1 transfection reagent (Minis Bio) and OPTI-MEM® media (Invitrogen). The cells were again incubated overnight at 37° C., 5% CO2.
# After the second overnight incubation, the media was removed and saved for analysis. […] To 10 μL of cell lysate or saved media from each sample, 50 μL assay buffer with 40 μM FBI-3939 was added, and luminescence measured as described above.
# To determine the stability of the secreted variants, 150 μL aliquots of the saved media from each sample was placed at 37° C. or 50° C. The aliquots were then removed at different time points ([…]), frozen on thy ice, and kept at −20° C. until assayed. To assay for stability, the media aliquots were thawed to room temperature, and 10 μL of each aliquot was mixed with assay buffer with PBI-3939 (pH 6.0) as described above. Luminescence was measured as above, and the half-life (t50) determined (Table 34).
# [6] = relative specificity for PBI-3939
molecule,measurement,setting,value
B1,Fold-Decrease in Luminescence in the Presence of Sandwich Background: HEK 293,[1],6
same,Fold over 9B8 opt + K33N: HEK293,"[1]; luminescence, PBI-3939",0.8
same,Increase in Luminescence: HEK293,[1],1.6
same,Fold over Native Coelenterazine: HEK293,[1]; [6],97
same,Fold-Decrease in Luminescence in the Presence of Sandwich Background: NIH 3T3 cells,[2],18
same,Fold over 9B8 opt + K33N: NIH3T3,"[2]; luminescence, PBI-3939",0.7
same,Increase in Luminescence: NIH3T3,[2],1.6
same,Fold over Native Coelenterazine: NIH3T3,[2]; [6],85
same,signal half life,[3],1.9 h
same,½ life hours,[4],21.7 h
same,½ life 37° C.,[5],17 days
same,½ life 50° C.,[5],11 h
B2,RLU,[4]; luminescence at start of incubation (t=0),"23,283,252,000 RLU"
same,T1/2(60° C.),[4]; pH 7,5.7 h
B3,Increase in Luminescence: HEK293,[1],1.0
same,Increase in Luminescence: NIH3T3,[2],1.0
same,signal half life,[3],1.23 h
same,signal half-life,[3],at least 30 min
same,½ life hours,[4],5.1 h
same,½ life 37° C.,[5],8 days
same,½ life 50° C.,[5],3 h
